What follows are sequences tested on Escherichia coli TOP10 (assay: shrunken log2 fold change of peptide-encoding DNA abundance (4.5 h post-induction vs induction); higher = less antimicrobial activity (less host growth inhibition)). Details: time post-induction: 4.5 h; library: site-saturation at positions 5, 18, 19, 20.
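Further: peptides expressed intracellularly from a pBAD plasmid library in pooled LB shake-flask culture, induced with 0.3% L-arabinose, DNA abundance read by NGS, three biological replicates, DESeq2 with apeglm shrinkage.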

Sequence	shrunken log2 fold change
RRIRKRPPRLPRPRPRPWIAPRP	0.285
RRIRYRPPRLPRPRPRPMFGPRP	-0.143
RRIRPRPPRLPRPRPRPTPHPRP	0.373
RRIRKRPPRLPRPRPRPTRDPRP	0.753
RRIRIRPPRLPRPRPRPYHMPRP	-0.123
RRIRLRPPRLPRPRPRPKYSPRP	-0.622
RRIRVRPPRLPRPRPRPGAGPRP	0.284
RRIRHRPPRLPRPRPRPVPDPRP	-0.526
RRIRCRPPRLPRPRPRPPWKPRP	0.195
RRIRTRPPRLPRPRPRPVQCPRP	0.00249
RRIRHRPPRLPRPRPRPDYYPRP	-0.622
RRIRDRPPRLPRPRPRPYAPPRP	-0.477
RRIRNRPPRLPRPRPRPRNSPRP	-0.0392
RRIRCRPPRLPRPRPRPECSPRP	0.231
RRIRVRPPRLPRPRPRPRECPRP	0.175
RRIRTRPPRLPRPRPRPTAKPRP	-0.143
RRIRNRPPRLPRPRPRPVFPPRP	-0.000239
RRIRWRPPRLPRPRPRPHNSPRP	-0.394
RRIRWRPPRLPRPRPRPSINPRP	-0.0638
RRIRQRPPRLPRPRPRPQQGPRP	-0.147
RRIRKRPPRLPRPRPRPRQFPRP	0.192
RRIRCRPPRLPRPRPRPGKYPRP	-0.316
RRIRYRPPRLPRPRPRPGTLPRP	-0.803
RRIRPRPPRLPRPRPRPSALPRP	-0.00612
RRIRHRPPRLPRPRPRPGFRPRP	0.237

Sequence	shrunken log2 fold change
RRIRTRPPRLPRPRPRPFWAPRP	0.346
RRIRSRPPRLPRPRPRPQMNPRP	-0.227
RRIRHRPPRLPRPRPRPWLPPRP	-0.0823
RRIRCRPPRLPRPRPRPLKRPRP	-0.052
RRIRKRPPRLPRPRPRPRHKPRP	0.458
RRIRKRPPRLPRPRPRPIWFPRP	-0.0276
RRIRCRPPRLPRPRPRPRKIPRP	0.245
RRIRTRPPRLPRPRPRPPEMPRP	0.237
RRIRRRPPRLPRPRPRPMHFPRP	0.0461
RRIRHRPPRLPRPRPRPPTAPRP	0.212
RRIRWRPPRLPRPRPRPQDPPRP	0.0126
RRIRPRPPRLPRPRPRPTLCPRP	-0.0815
RRIRERPPRLPRPRPRPPWEPRP	0.145
RRIRCRPPRLPRPRPRPCKWPRP	-0.208
RRIRFRPPRLPRPRPRPWIQPRP	-0.997
RRIRERPPRLPRPRPRPTQNPRP	0.262
RRIRHRPPRLPRPRPRPLMRPRP	0.221
RRIRRRPPRLPRPRPRPNFYPRP	-0.124
RRIRHRPPRLPRPRPRPHTDPRP	-0.212
RRIRYRPPRLPRPRPRPRTYPRP	-0.71
RRIRKRPPRLPRPRPRPGRLPRP	0.299
RRIRMRPPRLPRPRPRPETFPRP	0.211
RRIRVRPPRLPRPRPRPNVDPRP	-0.0826
RRIRVRPPRLPRPRPRPCLFPRP	-0.592
RRIRERPPRLPRPRPRPFQKPRP	-0.178

Sequence	shrunken log2 fold change
RRIRPRPPRLPRPRPRPQTYPRP	-0.256
RRIRYRPPRLPRPRPRPWKEPRP	-0.0075
RRIRRRPPRLPRPRPRPPAAPRP	0.947
RRIRKRPPRLPRPRPRPHGDPRP	0.0106
RRIRCRPPRLPRPRPRPLMAPRP	0.18
RRIRPRPPRLPRPRPRPRENPRP	0.672
RRIRVRPPRLPRPRPRPVICPRP	-0.0928
RRIRQRPPRLPRPRPRPHQSPRP	0.0405
RRIRMRPPRLPRPRPRPEPVPRP	1.01
RRIRERPPRLPRPRPRPLCQPRP	0.00385
RRIRDRPPRLPRPRPRPSVNPRP	0.0833
RRIRFRPPRLPRPRPRPGNHPRP	-0.0246
RRIRYRPPRLPRPRPRPWLGPRP	-0.0293
RRIRKRPPRLPRPRPRPWDIPRP	-0.0322
RRIRKRPPRLPRPRPRPHGEPRP	0.428
RRIRSRPPRLPRPRPRPTHLPRP	0.135
RRIRLRPPRLPRPRPRPYCYPRP	-0.238
RRIRGRPPRLPRPRPRPCQGPRP	0.242
RRIRPRPPRLPRPRPRPHNGPRP	-0.0321
RRIRSRPPRLPRPRPRPTMNPRP	-0.225
RRIRDRPPRLPRPRPRPCIHPRP	-0.233
RRIRWRPPRLPRPRPRPEKVPRP	0.115
RRIRERPPRLPRPRPRPFEEPRP	-0.217
RRIRKRPPRLPRPRPRPQNVPRP	-0.0694
RRIRTRPPRLPRPRPRPWREPRP	-0.00743

Sequence	shrunken log2 fold change
RRIRKRPPRLPRPRPRPSENPRP	0.101
RRIRERPPRLPRPRPRPKYDPRP	-0.0434
RRIRWRPPRLPRPRPRPRNKPRP	0.0794
RRIRYRPPRLPRPRPRPNHDPRP	-0.433
RRIRRRPPRLPRPRPRPKMTPRP	0.24
RRIRQRPPRLPRPRPRPCKTPRP	-0.01
RRIRKRPPRLPRPRPRPKFSPRP	0.0774
RRIRVRPPRLPRPRPRPIRGPRP	0.0551
RRIRLRPPRLPRPRPRPEPGPRP	0.35
RRIRYRPPRLPRPRPRPDKFPRP	-0.116
RRIRTRPPRLPRPRPRPDGCPRP	0.127
RRIRPRPPRLPRPRPRPHCMPRP	-0.195
RRIRERPPRLPRPRPRPYQSPRP	-0.0109
RRIRHRPPRLPRPRPRPVNNPRP	-1.17
RRIRKRPPRLPRPRPRPLTIPRP	0.146
RRIRHRPPRLPRPRPRPLTMPRP	-0.3
RRIRMRPPRLPRPRPRPHPPPRP	1.26
RRIRLRPPRLPRPRPRPEQQPRP	0.0529
RRIRGRPPRLPRPRPRPNREPRP	-0.0791
RRIRIRPPRLPRPRPRPSIAPRP	-0.628
RRIRPRPPRLPRPRPRPQWIPRP	0.0662
RRIRDRPPRLPRPRPRPMKQPRP	-0.076
RRIRARPPRLPRPRPRPEYRPRP	0.0382
RRIRMRPPRLPRPRPRPFCRPRP	0.315
RRIRWRPPRLPRPRPRPLWQPRP	0.156

Sequence	shrunken log2 fold change
RRIRTRPPRLPRPRPRPYGTPRP	-0.347
RRIRRRPPRLPRPRPRPKWAPRP	0.0296
RRIRHRPPRLPRPRPRPCEPPRP	0.195
RRIRVRPPRLPRPRPRPELYPRP	0.0948
RRIRDRPPRLPRPRPRPMELPRP	0.0119
RRIRPRPPRLPRPRPRPGENPRP	0.184
RRIRYRPPRLPRPRPRPYDHPRP	-0.474
RRIRTRPPRLPRPRPRPKNGPRP	0.0173
RRIRARPPRLPRPRPRPYEDPRP	-0.117
RRIRIRPPRLPRPRPRPSMKPRP	-0.56
RRIRVRPPRLPRPRPRPYMSPRP	-0.583
RRIRKRPPRLPRPRPRPIDVPRP	0.191
RRIRCRPPRLPRPRPRPDGHPRP	-0.00753
RRIRARPPRLPRPRPRPWIYPRP	-0.647
RRIRSRPPRLPRPRPRPWPWPRP	0.0913
RRIRQRPPRLPRPRPRPRHIPRP	-0.319
RRIRYRPPRLPRPRPRPKALPRP	0.178
RRIRWRPPRLPRPRPRPSFLPRP	-0.351
RRIRHRPPRLPRPRPRPQVTPRP	-0.0667
RRIRRRPPRLPRPRPRPSKAPRP	-0.0721
RRIRNRPPRLPRPRPRPIHAPRP	-0.0866
RRIRCRPPRLPRPRPRPCKDPRP	-0.142
RRIRDRPPRLPRPRPRPPLAPRP	0.448
RRIRIRPPRLPRPRPRPQVGPRP	-0.094
RRIRARPPRLPRPRPRPGYEPRP	0.246

Sequence	shrunken log2 fold change
RRIRYRPPRLPRPRPRPSACPRP	-0.301
RRIRNRPPRLPRPRPRPAIIPRP	0.154
RRIRNRPPRLPRPRPRPFMQPRP	-0.194
RRIRERPPRLPRPRPRPQTSPRP	-0.37
RRIRTRPPRLPRPRPRPHGLPRP	-0.034
RRIRGRPPRLPRPRPRPHVHPRP	-0.332
RRIRIRPPRLPRPRPRPLTFPRP	-0.173
RRIRYRPPRLPRPRPRPKFSPRP	-0.434
RRIRGRPPRLPRPRPRPINAPRP	0.288
RRIRRRPPRLPRPRPRPMNDPRP	0.338
RRIRIRPPRLPRPRPRPNCEPRP	-0.525
RRIRARPPRLPRPRPRPVTHPRP	0.105
RRIRVRPPRLPRPRPRPICYPRP	0.19
RRIRARPPRLPRPRPRPFKCPRP	-0.0202
RRIRYRPPRLPRPRPRPKWWPRP	-0.0129
RRIRLRPPRLPRPRPRPERWPRP	0.637
RRIRSRPPRLPRPRPRPFSNPRP	-0.218
RRIRGRPPRLPRPRPRPPQGPRP	0.812
RRIRDRPPRLPRPRPRPMNTPRP	-0.125
RRIRIRPPRLPRPRPRPRKQPRP	-0.00244
RRIRKRPPRLPRPRPRPLSDPRP	0.22
RRIRCRPPRLPRPRPRPYNFPRP	-0.497
RRIRTRPPRLPRPRPRPYKGPRP	-0.0116
RRIRNRPPRLPRPRPRPYLEPRP	-0.00618
RRIRPRPPRLPRPRPRPNLQPRP	0.0751
